# In US20240002500A1 (GUANGDONG FAPON BIOPHARMA, published 2024):
# T1: human Tigit extracellular domain recombinant protein hTigit-his (Acrobiosystem, Cat.TIT-H2H3) (human, UniProt Q495A1 22-141)
# T1 construct: extracellular domain; Bought; not shown: his tag
# T1 sequence (looked up): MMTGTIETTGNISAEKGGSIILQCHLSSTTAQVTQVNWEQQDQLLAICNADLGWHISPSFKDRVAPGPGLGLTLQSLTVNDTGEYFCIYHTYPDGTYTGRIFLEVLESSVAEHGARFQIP
# Key:
# [1] = target: T1, human Tigit extracellular domain …; assay: BLI epitope binning (ForteBIO QKe), hTigit-his on anti-Penta-HIS sensor; competitor R0300
# Method: (§1) Epitope competition analysis was performed on an anti-human TIGIT antibody with an MD ForteBIO QKe platform. An experimental method included: a human Tigit extracellular domain recombinant protein hTigit-his (Acrobiosystem, Cat.TIT-H2H3, lot-1336-76GF1-F9) carrying a his tag was diluted with an equilibration buffer (1×PBS+0.02% Tween 20), until the final concentration was 1.5 μg/ml. The anti-human Tigit antibody was diluted with the equilibration buffer (1×PBS+0.02% Tween 20), the final concentration being 5 μg/ml. After an anti-Penta-HIS biosensor (ForteBIO, Cat. 18-5122) was fully hydrated, first the hTigit-his recombinant protein was solidified for 180 seconds, then equilibrated for 30 seconds, and bound to the first anti-human Tigit antibody for 180 seconds, then equilibrated for 30 seconds, and then bound to the second anti-human Tigit antibody, binding time being 300 seconds. The whole reaction was performed at 25° C. and 1000 rpm; and finally, Octet analysis software was used to perform epitope binning analysis.
# [2] = target: T1, human Tigit extracellular domain …; assay: BLI epitope binning (ForteBIO QKe), hTigit-his on anti-Penta-HIS sensor; competitor R0223
# Method: as §1
binder,measurement,setting,value
"Tigit-18 (antibody, V domains shown) VH: QVQLQQPGAELVRPGASVKLSCKASGYSFTSYWMNWVKQRPGQGHEWIGMIHLSNSETRLNQNFLDKATLTVDKSSSTVYLQLSSPTSEDSAVYYCARERDYYGSSYFDYWGQGTTLTVSS VL: DIVMTQSPASLVVSLGQRATISCRTSQSVSTSSYSYMHWYQQKPGQPPKLLIKNASNLESGVPARFSASGSGTDFTLNIHPVEEEDAATYYCQHSWEIPRTFGGGTKLEIK",epitope binning signal (name and unit not given),[1],0.544
same,epitope binning signal (name and unit not given),[2],0.0383
